Source: patent publication US20160053277A1, “Compositions Having Dicamba Decarboxylase Activity and Methods of Use” (PIONEER HI-BRED INTERNATIONAL, INC., priority 2013, published 2016)
Substitutions are numbered along the chain they refer to.

B1: 121 (protein)
chain: MAIIDCHGHYTTTPKGVEDYRNAQKAAVAKDPSFKGEKGQVVVSDDEIRESIENNQLKMQRERGTDLTIFSPRWDAGGHHIGNEYTSQFWTEHQNDLIRRVCDLFPKNFAPVAQLPQSPGVDPAKSVPEIVRTVEQMGFIGINLNPDPSGGYWKDTSLADRAFYPIYEKMVEYDIPAMIHPRLACNACFHTGLSVGLGADTTGFQQLIMSDVFKDFPSLKIIIPHGGGAVPYHWGRFRGLMQDQGYAPLEESALKNIYFDTCVYHQRGIDLLLDIVPTQNILFASEMIGAVRGIDPETGHNFDDTKRYIDNNTALNAEEKAMIFEGNARRVFSRLKTD
modifications: Dicamba decarboxylase variant clone: DC.12.014
B2: 122 (protein)
chain: B1 chain with W74S, D75T, L183N, A187D, G192T, L193G, V195H, G196A, E286D
modifications: Dicamba decarboxylase variant clone: DC.12.103

Legend:
[1] = Product analysis of reactions of purified His-tag protein with dicamba (14C assay, GC/MS, LC-MS/MS); type: biochemical; details: purified protein incubated with dicamba
Method: Alternatively, dicamba decarboxylase activity can be monitored by measuring decarboxylation products other than CO2 using product detection methods. The decarboxylation product of dicamba, 2,5-dichloro anisole or 2,5-DCA (FIG. 1C), is a volatile compound with a flash point of 21° C. To capture this volatile compound for detection, 140 ul of toluene solution is added on top of 1 ml reaction mixture to form a trapping layer in a 1.5 ml eppendorf tube. […] The reaction is kept still at room temperature overnight before being vortex mixed and centrifuged at 14,000 rpm for 15 minutes. The top toluene phase is carefully removed using a micropipette and transferred into a 12×32 mm polypropylene vial (Vial 11 mm) from MicroLiter Analytical Supplies, Inc. (catalog number 11-5300-100). The vial is sealed with Crimp seal (11 mm with FEP/Nat Rubber) from MicroLiter Analytical Supplies, Inc. (catalog number 11-0020A) using a E-Z Crimper™ 11 mm from Wheaton Inc. 1 ul of the toluene mixture is taken from the sealed vials and injected in splitless mode into a GC/MS system for sample analysis (Agilent GC/MS system with a 6890A GC, a 5973N MSD and a CTC CombiPAL auto-sampler or with a 7890A GC, a 5975C MSD and an Agilent GC Sampler 80 auto-sampler).

[2] = Dicamba decarboxylation activity of computationally designed protein variants and their parents; details: statement in the description
[3] = 14C assay with IPTG-induced recombinant E. coli cells: 14CO2 captured from [14C]-carboxyl-labeled dicamba; details: dicamba decarboxylation activity of the protein of the given SEQ ID NO; High / Low / No
[4] = Saturation mutagenesis of SEQ ID NO:109: dicamba decarboxylation activity of point mutants (carbon dioxide released); details: decarboxylation activity (carbon dioxide released) of point mutant compared with unmutated backbone protein; backbone SEQ ID NO: 109

Row | Molecule | enzymatic reaction products detected [1] | dicamba decarboxylase activity (native protein or designed variant) [2] | Enzymatic Detection level [3] | Fold Activity [4]
1 | B1 | 2,5-DCA was detected | have dicamba decarboxylase activity | High | 1
2 | B2 | 2,5-DCA was detected | have dicamba decarboxylase activity | High | 0.9
